Measurements reported in IntAct's records for PubMed 35512704.

B1: Speckle-type POZ protein (Homo sapiens), O43791 (parent)
chain: MSRVPSPPPPAEMSSGPVAESWCYTQIKVVKFSYMWTINNFSFCREEMGEVIKSSTFSSGANDKLKWCLRVNPKGLDEESKDYLSLYLLLVSCPKSEVRAKFKFSILNAKGEETKAMESQRAYRFVQGKDWGFKKFIRRDFLLDEANGLLPDDKLTLFCEVSVVQDSVNISGQNTMNMVKVPECRLADELGGLWENSRFTDCCLCVAGQEFQAHKAILAARSPVFSAMFEHEMEESKKNRVEINDVEPEVFKEMMCFIYTGKAPNLDKMADDLLAAADKYALERLKVMCEDALCSNLSVENAAEILILADLHSADQLKTQAVDFINYHASDVLETSGWKSMVVSHPHLVAEAYRSLASAQCPFLGPPRKRLKQS
partner: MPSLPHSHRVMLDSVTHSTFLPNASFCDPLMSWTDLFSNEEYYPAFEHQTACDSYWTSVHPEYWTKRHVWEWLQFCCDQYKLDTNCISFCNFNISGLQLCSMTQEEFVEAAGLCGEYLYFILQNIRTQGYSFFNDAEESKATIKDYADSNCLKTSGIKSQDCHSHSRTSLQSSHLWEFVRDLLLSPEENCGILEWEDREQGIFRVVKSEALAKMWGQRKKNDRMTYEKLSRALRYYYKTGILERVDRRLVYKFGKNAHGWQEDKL
B2: Speckle-type POZ protein (Homo sapiens), O43791 (parent)
chain: B1 chain
partner: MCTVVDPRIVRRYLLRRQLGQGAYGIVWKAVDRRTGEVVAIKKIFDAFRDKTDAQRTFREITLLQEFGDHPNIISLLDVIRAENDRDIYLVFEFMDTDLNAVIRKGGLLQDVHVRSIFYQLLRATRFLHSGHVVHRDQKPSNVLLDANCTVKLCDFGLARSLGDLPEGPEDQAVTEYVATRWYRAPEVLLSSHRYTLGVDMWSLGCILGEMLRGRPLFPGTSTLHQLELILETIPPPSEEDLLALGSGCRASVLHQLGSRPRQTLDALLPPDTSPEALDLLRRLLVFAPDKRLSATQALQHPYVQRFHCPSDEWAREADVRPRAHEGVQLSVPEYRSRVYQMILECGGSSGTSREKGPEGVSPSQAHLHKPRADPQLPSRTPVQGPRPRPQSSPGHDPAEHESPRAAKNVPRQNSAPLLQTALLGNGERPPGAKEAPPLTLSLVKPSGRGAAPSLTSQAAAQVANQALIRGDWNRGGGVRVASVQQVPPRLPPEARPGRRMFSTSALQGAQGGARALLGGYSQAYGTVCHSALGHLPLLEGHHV
B3: Speckle-type POZ protein (Homo sapiens), O43791 (parent)
chain: B1 chain
partner: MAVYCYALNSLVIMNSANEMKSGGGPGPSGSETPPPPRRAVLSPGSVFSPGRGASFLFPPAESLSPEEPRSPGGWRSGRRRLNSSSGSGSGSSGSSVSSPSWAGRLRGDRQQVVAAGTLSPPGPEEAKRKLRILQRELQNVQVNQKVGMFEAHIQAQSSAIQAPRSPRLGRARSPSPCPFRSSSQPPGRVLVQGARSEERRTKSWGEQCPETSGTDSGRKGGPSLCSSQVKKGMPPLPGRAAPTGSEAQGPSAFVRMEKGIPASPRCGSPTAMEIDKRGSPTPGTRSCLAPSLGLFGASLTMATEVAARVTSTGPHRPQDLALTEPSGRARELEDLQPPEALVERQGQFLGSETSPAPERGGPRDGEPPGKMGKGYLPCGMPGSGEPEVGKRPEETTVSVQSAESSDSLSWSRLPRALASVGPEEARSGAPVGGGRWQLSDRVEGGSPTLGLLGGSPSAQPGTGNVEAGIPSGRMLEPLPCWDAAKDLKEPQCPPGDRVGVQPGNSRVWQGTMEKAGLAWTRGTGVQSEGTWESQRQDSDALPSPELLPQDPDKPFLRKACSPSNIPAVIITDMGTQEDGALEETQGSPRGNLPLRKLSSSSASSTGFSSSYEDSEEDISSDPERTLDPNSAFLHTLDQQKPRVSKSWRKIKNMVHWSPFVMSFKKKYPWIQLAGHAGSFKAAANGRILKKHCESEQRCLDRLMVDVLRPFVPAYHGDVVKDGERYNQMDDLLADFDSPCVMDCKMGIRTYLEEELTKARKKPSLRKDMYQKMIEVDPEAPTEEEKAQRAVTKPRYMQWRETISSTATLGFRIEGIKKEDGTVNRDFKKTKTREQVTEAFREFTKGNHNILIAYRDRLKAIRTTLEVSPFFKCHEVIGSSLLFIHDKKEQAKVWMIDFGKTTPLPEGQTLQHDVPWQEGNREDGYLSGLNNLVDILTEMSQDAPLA
B4: Speckle-type POZ protein (Homo sapiens), O43791 (parent)
chain: B1 chain
partner: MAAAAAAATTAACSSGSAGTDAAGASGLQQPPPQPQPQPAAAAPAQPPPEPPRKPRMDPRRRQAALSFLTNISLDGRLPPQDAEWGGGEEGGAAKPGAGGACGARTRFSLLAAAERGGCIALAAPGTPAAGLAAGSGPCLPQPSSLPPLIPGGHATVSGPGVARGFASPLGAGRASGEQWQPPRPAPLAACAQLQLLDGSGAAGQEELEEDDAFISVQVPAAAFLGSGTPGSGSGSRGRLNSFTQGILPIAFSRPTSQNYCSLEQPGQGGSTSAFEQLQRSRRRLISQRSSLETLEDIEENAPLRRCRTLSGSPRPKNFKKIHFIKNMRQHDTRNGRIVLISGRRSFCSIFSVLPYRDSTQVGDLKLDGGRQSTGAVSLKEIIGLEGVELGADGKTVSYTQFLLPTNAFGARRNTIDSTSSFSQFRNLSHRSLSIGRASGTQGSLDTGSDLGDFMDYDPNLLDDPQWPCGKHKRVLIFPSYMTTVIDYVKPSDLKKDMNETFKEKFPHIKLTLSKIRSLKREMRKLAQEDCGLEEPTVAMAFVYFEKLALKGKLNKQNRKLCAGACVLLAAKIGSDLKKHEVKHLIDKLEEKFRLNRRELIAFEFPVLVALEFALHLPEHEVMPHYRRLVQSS

Variants of: B1
Conditions: with elf5_human ELF5, Q9UKW6

effect of a mutation on the interaction | Variant
with no effect | F133V

Variants of: B1
Conditions: with elf5_human ELF5, Q9UKW6
Remark: another data set of the same source

effect of a mutation on the interaction | Variant
with no effect | Y87C

Variants of: B1
Conditions: with elf5_human ELF5, Q9UKW6
Remark: another data set of the same source

effect of a mutation on the interaction | Variant
with no effect | F102C

Variants of: B2
Conditions: with mk15_human MAPK15, Q8TD08

Variant | effect of a mutation on the interaction
F133V | with no effect

Variants of: B2
Conditions: with mk15_human MAPK15, Q8TD08
Remark: another data set of the same source

Variant | effect of a mutation on the interaction
F133L | with no effect

Variants of: B2
Conditions: with mk15_human MAPK15, Q8TD08
Remark: another data set of the same source

Variant | effect of a mutation on the interaction
Y87C | with no effect

Variants of: B2
Conditions: with mk15_human MAPK15, Q8TD08
Remark: another data set of the same source

Variant | effect of a mutation on the interaction
F102C | with no effect

Variants of: B3
Conditions: with ip3kb_human ITPKB

effect of a mutation on the interaction | Variant
with no effect | Y87C

Variants of: B3
Conditions: with ip3kb_human ITPKB
Remark: another data set of the same source

effect of a mutation on the interaction | Variant
with no effect | F133L

Variants of: B3
Conditions: with ip3kb_human ITPKB
Remark: another data set of the same source

effect of a mutation on the interaction | Variant
with no effect | F133V

Variants of: B3
Conditions: with ip3kb_human ITPKB
Remark: another data set of the same source

effect of a mutation on the interaction | Variant
with no effect | F102C

Variants of: B4
Conditions: with cabl1_human CABLES1, Q8TDN4

effect of a mutation on the interaction | Variant
with no effect | F133V
